Test results from patent publication US20140072980A1.

What was measured:
[1] = target: IgG1 Fc/Fc* bispecific antibody; assay: flow cytometry: antibody displayed on CHO cells by CSCP FcγR, detected with Anti-hFc
[2] = target: IgG1 Fc/Fc monospecific antibody; assay: as above

Mean Fluorescence Intensity (MFI) [1]: 1800 MFI | Mean Fluorescence Intensity (MFI) [2]: 1000 MFI
Substance: human FcγRI (from UniProt P12314 16-374) (receptor)
